In assay [1] the target is T1, human GLP-1 receptor (human, UniProt P43220 24-463).
T1 construct: whole, on cells; Used as membrane preparations of the transfected hamster (BHK) cell line, not as whole cells; also called hGLP-1/BHK 467-12A membranes
Put plainly: SPA, displacement of 125I-GLP-1(7-36)NH2 from membranes with human GLP-1 receptor, 2.0% HSA. An excerpt:
(§1) A shift in the binding affinity, $IC50$, is an indication that the peptide in question binds to albumin, and thereby a prediction of a potential protracted pharmacokinetic profile of the peptide in question in animal models. Conditions Species (in vitro): Hamster Biological End Point: Receptor Binding Assay Method: SPA Receptor: GLP-1 receptor Cell Line: BHK tk-ts13 Cell Culture and Membrane Purification A stable transfected cell line and a high expressing clone were selected for screening. The cells were grown at 5% CO_2 in DMEM, 10% FCS, 1% Pen/Strep (Penicillin/Streptomycin) and 1.0 mg/ml of the selection marker G418.
(§2) 25 ul (micro liter) of test compounds were added to Optiplate. HSA ("high albumin" experiment containing 2% HSA), or buffer ("low albumin" experiment containing 0.005% HSA), was added (50 ul). 5-10 ug protein/sample was added (50 ul) corresponding to 0.1-0.2 mg protein/ml (to be preferably optimised for each membrane preparation). SPA-particles (Wheatgerm agglutinin SPA beads, Perkin Elmer, #RPNQ0001) were added in an amount of 0.5 mg/well (50 ul). […] The plates were sealed with PlateSealer and incubated for 120 minutes at 30° C. while shaking. The plates were centrifuged (1500 rpm, 10 min) and counted in Topcounter. Assay Buffer: 50 mM HEPES 5 mM EGTA 5 mM MgCl2 0.005% Tween™ 20 pH 7.4 HSA was SIGMA A1653.
In general terms: In a radioligand displacement assay an active substance lowers the binding of a labelled ligand.

The target in assay [2] is T1, human GLP-1 receptor. Put plainly: SPA, displacement of 125I-GLP-1(7-36)NH2 from membranes with human GLP-1 receptor, 0.005% HSA.
Source text: as §1, §2

These results are taken from patent US8648041 (Novo Nordisk, dated 2014).

Numbered stars: 1 amine (or outer) side, 2 acyl side, 3 side chain; on linkers, the order of the positions; unused ones are H or OH. Square brackets hold non-standard residues; d marks the D form. Side chains are listed from the residue outwards. Ends that are not written are not given here. * marks the point of attachment. 9‑(4-carboxyphenoxy)nonanoyl = O=C(O)c1ccc(OCCCCCCCCC(=O)*)cc1; 8‑(4-carboxyphenoxy)octanoyl = O=C(O)c1ccc(OCCCCCCCC(=O)*)cc1; Malonyl(2,2-Me2,histaminyl) = CC(C)(C(=O)NCCc1cnc[nH]1)C(=O)*; Decanoyl(10-(4-HOOC-PhO)) = O=C(O)c1ccc(OCCCCCCCCCC(=O)*)cc1; γGlu = O=C(O)[C@H](CCC(=O)[*:2])N[*:1]; C14 diacid = O=C(O)CCCCCCCCCCCCC(=O)*; C12 diacid = O=C(O)CCCCCCCCCCC(=O)*; AEEA = NCCOCCOCC(=O)O; Aib = CC(C)(N)C(=O)O

The term IC50 denotes the concentration at which inhibition is half-maximal. A lower IC50 goes with higher potency.

With HAEGTFTSDVSSYLEGQAAK([AEEA-AEEA-γGlu-Decanoyl(10-(4-HOOC-PhO))])EFIAWLVRGRK([AEEA-AEEA-γGlu-Decanoyl(10-(4-HOOC-PhO))]), the IC50 with human GLP-1 receptor [1] is no more than 1000 nM; with human GLP-1 receptor [2], less than 600 nM.

On to HAEGTFTSDVSSYLEGQAAK([AEEA-AEEA-γGlu-C14 diacid])EFIAHLVQGRK([AEEA-AEEA-γGlu-C14 diacid]) (also called Chem. 53), for which the IC50 in the assay with human GLP-1 receptor [1] was no more than 1000 nM; in the assay with human GLP-1 receptor [2] it was less than 600 nM.

Take HAEGTFTSDVSSYLEGQAAK([AEEA-AEEA-γGlu-8‑(4-carboxyphenoxy)octanoyl])EFIAWLVRGGK([AEEA-AEEA-γGlu-8‑(4-carboxyphenoxy)octanoyl]): the IC50 is no more than 1000 nM with human GLP-1 receptor [1] and less than 600 nM with human GLP-1 receptor [2].

In the case of HAEGTFTSDVSSYLEGQAAK([AEEA-AEEA-γGlu-C12 diacid])EFIAHLVQGRK([AEEA-AEEA-γGlu-C12 diacid]) (also called Chem. 54), the IC50 with human GLP-1 receptor [1] is no more than 1000 nM; in the assay with human GLP-1 receptor [2] it was less than 600 nM.

HAEGTFTSDVSSYLEGQAAK([AEEA-AEEA-γGlu-Decanoyl(10-(4-HOOC-PhO))])EFIAHLVQGRK([AEEA-AEEA-γGlu-Decanoyl(10-(4-HOOC-PhO))]) (also called Chem. 52): the IC50 with human GLP-1 receptor [1] is no more than 1000 nM; with human GLP-1 receptor [2] it was less than 600 nM.

For the molecule HAEGTFTSDVSSYLEGQAAK([AEEA-AEEA-γGlu-Decanoyl(10-(4-HOOC-PhO))])EFIAWLVRGGK([AEEA-AEEA-γGlu-Decanoyl(10-(4-HOOC-PhO))]), the values for the IC50 with human GLP-1 receptor [1] and with human GLP-1 receptor [2] were no more than 1000 nM and less than 600 nM, respectively.

HAEGTFTSDVSSYLEGQAAK([AEEA-AEEA-γGlu-Decanoyl(10-(4-HOOC-PhO))])EFIEWLVRGRK([AEEA-AEEA-γGlu-Decanoyl(10-(4-HOOC-PhO))]): the IC50 with human GLP-1 receptor [1] is no more than 1000 nM; with human GLP-1 receptor [2] it was less than 600 nM.

As for HAQGTFTSDVSSYLEGQAAK([AEEA-AEEA-γGlu-Decanoyl(10-(4-HOOC-PhO))])EFIAWLVRGRK([AEEA-AEEA-γGlu-Decanoyl(10-(4-HOOC-PhO))]), the figures for the IC50 with human GLP-1 receptor [1] and with human GLP-1 receptor [2] were no more than 1000 nM and less than 600 nM, respectively.

In the case of HAEGTFTSDVSSYLEGQAAK([γGlu-AEEA-AEEA-Decanoyl(10-(4-HOOC-PhO))])EFIAHLVQGRK([γGlu-AEEA-AEEA-Decanoyl(10-(4-HOOC-PhO))]) (also called Chem. 55), the IC50 is no more than 1000 nM with human GLP-1 receptor [1] and less than 600 nM in the assay with human GLP-1 receptor [2].

On to {2,2‑dimethyl‑3‑oxo‑3‑(pyridin-2-ylmethylamino)propanoyl}-EGTFTSDVSSYLEGQAAK([AEEA-AEEA-γGlu-Decanoyl(10-(4-HOOC-PhO))])EFIAWLVRGRK([AEEA-AEEA-γGlu-Decanoyl(10-(4-HOOC-PhO))]) (also called Chem. 60) [N{9}-[2,2-dimethyl-3-oxo-3-(pyridin-2-ylmethylamino)propanoyl], …], for which the IC50 is no more than 1000 nM in the assay with human GLP-1 receptor [1] and less than 600 nM with human GLP-1 receptor [2].

HAEGTFTSDVSSYLEGQAAK([γGlu-AEEA-AEEA-C14 diacid])EFIAWLVRGRK([γGlu-AEEA-AEEA-C14 diacid]): the results for the IC50 in the assay with human GLP-1 receptor [1] and with human GLP-1 receptor [2] were no more than 1000 nM and less than 600 nM, respectively.

B1: N^ε26-[2-[2-[2-[[2-[2-[2-[[(4S)-4-carboxy-4-[10-(4-carboxyphenoxy)decanoylamino]butanoyl]amino]ethoxy]ethoxy]acetyl]amino]ethoxy]ethoxy]acetyl], … (peptide)
peptide: HAEGTFTSDVSSYLEGQAAK([AEEA-AEEA-γGlu-Decanoyl(10-(4-HOOC-PhO))])EFIAWLVRGRK([AEEA-AEEA-γGlu-Decanoyl(10-(4-HOOC-PhO))])G
notes: the added Gly38 is therefore written as a second piece
For the molecule B1, the IC50 with human GLP-1 receptor [1] was no more than 1000 nM; with human GLP-1 receptor [2], less than 600 nM.

For the molecule HAEGTFTSDVSSYLEGQAAK([AEEA-AEEA-γGlu-Decanoyl(10-(4-HOOC-PhO))])EFIAWLVRGRK([AEEA-AEEA-γGlu-Decanoyl(10-(4-HOOC-PhO))])E (also called Chem. 65), the IC50 is no more than 1000 nM in the assay with human GLP-1 receptor [1] and less than 600 nM in the assay with human GLP-1 receptor [2].

With {Malonyl(2,2-Me2,histaminyl)}-EGTFTSDVSSYLEGQAAK([AEEA-AEEA-γGlu-Decanoyl(10-(4-HOOC-PhO))])EFIAWLVRGRK([AEEA-AEEA-γGlu-Decanoyl(10-(4-HOOC-PhO))])E (also called Chem. 41) [N^9-{2-[2-(1H-Imidazol-4-yl)ethylcarbamoyl]-2-methylpropionyl}, …], the IC50 with human GLP-1 receptor [1] is no more than 1000 nM; with human GLP-1 receptor [2], less than 600 nM.

Regarding HAEGTFTSDVSSYLEGQAAK([AEEA-AEEA-γGlu-9‑(4-carboxyphenoxy)nonanoyl])EFIAWLVRGRK([AEEA-AEEA-γGlu-9‑(4-carboxyphenoxy)nonanoyl]), the figures for the IC50 with human GLP-1 receptor [1] and in the assay with human GLP-1 receptor [2] were no more than 1000 nM and less than 600 nM, respectively.

B2: N^ε26-[2-(2-[2-(2-[2-(2-[4-(10-(4-Carboxyphenoxy)decanoylamino)-4(S)-carboxybutyrylamino]ethoxy)ethoxy]acetylamino)ethoxy]ethoxy)acetyl]-N^ε37-[2-(2-[2-(2-[2-(2 … (peptide)
peptide: HXEGTFTSDVSSYLEGQAAKEFIAHLVQGRK
modifications: Aib at 8; Lys26 and Lys37 each acylated at the epsilon-amino group with 10-(4-carboxyphenoxy)decanoyl-gammaGlu-OEG-OEG (GLP-1(7-37) numbering, His = 7)
notes: also called Chem. 36
Regarding B2, the IC50 in the assay with human GLP-1 receptor [1] was no more than 1000 nM; with human GLP-1 receptor [2], less than 600 nM.

Turning to H[Aib]GGTFTSDVSSYLEGQAAK([AEEA-AEEA-γGlu-Decanoyl(10-(4-HOOC-PhO))])EFIAWLVRGRK([AEEA-AEEA-γGlu-Decanoyl(10-(4-HOOC-PhO))]), the figures for the IC50 with human GLP-1 receptor [1] and with human GLP-1 receptor [2] were no more than 1000 nM and less than 600 nM, respectively.

For the molecule H[Aib]EGTFTSDVSSYLEGRAAK([AEEA-AEEA-γGlu-Decanoyl(10-(4-HOOC-PhO))])EFIAWLVRGRK([AEEA-AEEA-γGlu-Decanoyl(10-(4-HOOC-PhO))]), the IC50 with human GLP-1 receptor [1] was no more than 1000 nM; in the assay with human GLP-1 receptor [2] it was less than 600 nM.

B3: N^ε26-[2-(2-{2-[2-(2-{2-[(S)-4-Carboxy-4-(11-carboxyundecanoylamino)butyrylamino]ethoxy}ethoxy)acetylamino]ethoxy}ethoxy)acetyl], … (peptide)
peptide: HXEGTFTSDVSSYLEGQAAKEFIAHLVQGRK
modifications: Aib at 8; Lys26 and Lys37 each acylated at the epsilon-amino group with 11-carboxyundecanoyl-gammaGlu-OEG-OEG (GLP-1(7-37) numbering, His = 7)
notes: also called Chem. 40
B3: the IC50 was no more than 1000 nM with human GLP-1 receptor [1] and less than 600 nM with human GLP-1 receptor [2].

Regarding HAEGTFTSDVSSYLEGQAAK([AEEA-AEEA-γGlu-8‑(4-carboxyphenoxy)octanoyl])EFIAWLVRGRK([AEEA-AEEA-γGlu-8‑(4-carboxyphenoxy)octanoyl]), the IC50 with human GLP-1 receptor [1] was no more than 1000 nM; in the assay with human GLP-1 receptor [2], less than 600 nM.

As to HAEGTFTSDVSSYLEGQAAK([AEEA-AEEA-γGlu-C14 diacid])EFIAWLVRGRK([AEEA-AEEA-γGlu-C14 diacid]), the IC50 with human GLP-1 receptor [1] was no more than 1000 nM; with human GLP-1 receptor [2], less than 600 nM.

B4: N^ε26-[2-[2-[2-[[2-[2-[2-[[(4S)-4-carboxy-4-[10-(4-carboxyphenoxy) decanoylamino]butanoyl]amino]ethoxy]ethoxy]acetyl]amino]ethoxy]ethoxy]acetyl], … (peptide)
peptide: XAEGTFTSDVSSYLEGQAAKEFIAWLVRGRK
modifications: Imp (imidazopropionic acid, des-amino histidine) at 7; Lys26 and Lys37 each acylated at the epsilon-amino group with 10-(4-carboxyphenoxy)decanoyl-gammaGlu-OEG-OEG (GLP-1(7-37) numbering)
As for B4, the IC50 with human GLP-1 receptor [1] was no more than 1000 nM; with human GLP-1 receptor [2], less than 600 nM.

For {Malonyl(2,2-Me2,histaminyl)}-EGTFTSDVSSYLEGQAAK([AEEA-AEEA-γGlu-Decanoyl(10-(4-HOOC-PhO))])EFIAWLVRGRK([AEEA-AEEA-γGlu-Decanoyl(10-(4-HOOC-PhO))]) (also called Chem. 42), the IC50 was no more than 1000 nM with human GLP-1 receptor [1] and less than 600 nM in the assay with human GLP-1 receptor [2].

B5: N^9-{2-[2-(1H-Imidazol-4-yl)-ethylcarbamoyl]-2-methylpropionyl}-N^ε26-{2-[2-(2-{2-[2-(2-{(S)-4-[4-(4-tert-Butylphenyl)butyrylamino]-4-carboxybutyrylamino}ethoxy … (peptide)
peptide: {Malonyl(2,2-Me2,histaminyl)}-EGTFTSDVSSYLEGQAAKEFIAWLVRGRK
modifications: not fully specified (residues 18, 29); printed as N^9-{2-[2-(1H-Imidazol-4-yl)-ethylcarbamoyl]-2-methylpropionyl}-N^ε26-{2-[2-(2-{2-[2-(2-{(S)-4-[4-(4-tert-Butylphenyl)butyrylamino]-4-carboxybutyrylamino}ethoxy)ethoxy]acetylamino}ethoxy)ethoxy]acetyl}, N^ε37-{2-[2-(2-{2-[2-(2-{(S)-4-[4-(4-tert-Butylphenyl)butyrylamino]-4-carboxybutyrylamino}ethoxy)ethoxy]acetylamino}ethoxy)ethoxy]acetyl}[Arg^34, Lys^37]GLP-1(9-37)-peptide
notes: also called Chem. 46
As for B5, the IC50 is no more than 1000 nM in the assay with human GLP-1 receptor [1] and less than 600 nM with human GLP-1 receptor [2].
